Measured values from publication PMC4110903 (Methods in enzymology, 2014).

Biological target: T1, MBP-tagged full length human HSPC300 (human, UniProt Q8WUW1 1-75)
T1 sequence (looked up): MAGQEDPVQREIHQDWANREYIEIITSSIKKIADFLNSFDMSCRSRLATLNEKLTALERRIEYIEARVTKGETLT
Test: reconstitution and co-elution on anion exchange chromatography

B1: MBP-tagged WAVE217: human WAVE1 (1-217)-(GGS)6-(485-559) (domain or fragment)
chain: MPLVKRNIDPRHLCHTALPRGIKNELECVTNISLANIIRQLSSLSKYAEDIFGELFNEAHSFSFRVNSLQERVDRLSVSVTQLDPKEEELSLQDITMRKAFRSSTIQDQQLFDRKTLPIPLQETYDVCEQPPPLNILTPYRDDGKEGLKFYTNPSYFFDLWKEKMLQDTEDKRKEKRKQKQKNLDRPHEPEKVPRAPHDRRREWQKLAQGPELAEDDGGSGGSGGSGGSGGSGGSKRHPSTLPVISDARSVLLEAIRKGIQLRKVEEQREQEAKHERIENDVATILSRRIAVEYSDSEDDSEFDEVDWLE
binding result: binds
